One molecule from paper PMC11339404 can be followed below.

Among the targets are RAD51;SWSAP1-SWS1 (human;human, UniProt Q06609;Q6NVH7;Q19AV6 1-339;1-250;1-140, |); RPA (human, UniProt P27694;P15927;P35244 1-616;1-270;1-121); RAD51 (human, UniProt Q06609 1-339).
Experiment in all cases: FRET
For the next series, the target named is T1, SWSAP1-SWS1 (human, UniProt Q6NVH7;Q19AV6 1-250;1-140).
T1 sequence 1: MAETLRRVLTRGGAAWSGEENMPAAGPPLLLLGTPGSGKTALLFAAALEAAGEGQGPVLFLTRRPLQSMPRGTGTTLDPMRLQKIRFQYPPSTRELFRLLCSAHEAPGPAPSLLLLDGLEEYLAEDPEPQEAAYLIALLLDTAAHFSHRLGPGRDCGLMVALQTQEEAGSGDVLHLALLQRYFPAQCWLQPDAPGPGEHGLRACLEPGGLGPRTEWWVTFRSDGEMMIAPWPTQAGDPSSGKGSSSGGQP
T1 sequence 2: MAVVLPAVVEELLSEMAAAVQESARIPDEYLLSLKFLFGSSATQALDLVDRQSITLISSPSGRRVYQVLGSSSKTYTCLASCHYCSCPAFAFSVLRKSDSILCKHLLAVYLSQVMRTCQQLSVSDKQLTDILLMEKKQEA

Sequence of RAD51;SWSAP1-SWS1 (Q06609 whole entry, one chain of several): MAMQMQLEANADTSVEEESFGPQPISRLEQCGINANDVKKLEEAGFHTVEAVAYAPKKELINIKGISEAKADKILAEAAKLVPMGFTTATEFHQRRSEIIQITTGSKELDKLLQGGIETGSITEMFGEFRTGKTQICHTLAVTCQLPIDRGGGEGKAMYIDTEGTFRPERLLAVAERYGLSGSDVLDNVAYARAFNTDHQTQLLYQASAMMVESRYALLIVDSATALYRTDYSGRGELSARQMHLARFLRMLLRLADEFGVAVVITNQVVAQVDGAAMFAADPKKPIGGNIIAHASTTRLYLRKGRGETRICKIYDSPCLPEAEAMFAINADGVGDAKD
Sequence of RAD51 (Q06609 whole entry): as the sequence (Q06609 whole entry, one chain of several) above
Sequence of RPA (P27694 whole entry, chain 1 of 3): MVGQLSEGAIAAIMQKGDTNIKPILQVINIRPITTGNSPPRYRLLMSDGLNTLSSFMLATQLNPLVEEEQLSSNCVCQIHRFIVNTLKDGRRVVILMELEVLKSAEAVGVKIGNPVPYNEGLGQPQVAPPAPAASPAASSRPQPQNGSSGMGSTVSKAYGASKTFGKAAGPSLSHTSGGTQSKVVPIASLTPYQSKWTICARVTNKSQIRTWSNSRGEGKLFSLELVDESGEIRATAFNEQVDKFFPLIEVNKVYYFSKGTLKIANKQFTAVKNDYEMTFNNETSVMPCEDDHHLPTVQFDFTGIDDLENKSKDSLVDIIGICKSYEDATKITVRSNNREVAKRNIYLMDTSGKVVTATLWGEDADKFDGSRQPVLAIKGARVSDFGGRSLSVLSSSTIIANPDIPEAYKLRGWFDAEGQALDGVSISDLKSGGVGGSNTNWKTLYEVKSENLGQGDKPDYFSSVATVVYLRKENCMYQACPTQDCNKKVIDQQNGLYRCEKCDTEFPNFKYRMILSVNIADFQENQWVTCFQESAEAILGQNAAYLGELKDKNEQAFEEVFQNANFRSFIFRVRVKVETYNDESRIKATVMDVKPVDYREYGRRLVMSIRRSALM
Sequence of RPA (P15927 whole entry, chain 2 of 3): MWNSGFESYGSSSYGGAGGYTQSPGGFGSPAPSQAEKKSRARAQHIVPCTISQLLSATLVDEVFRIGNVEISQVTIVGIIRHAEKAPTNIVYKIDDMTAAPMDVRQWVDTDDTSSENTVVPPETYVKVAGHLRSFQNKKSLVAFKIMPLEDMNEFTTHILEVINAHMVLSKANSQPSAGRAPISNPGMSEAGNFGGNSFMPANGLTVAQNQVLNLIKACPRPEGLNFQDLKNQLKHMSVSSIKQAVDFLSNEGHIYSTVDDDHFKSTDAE
Sequence of RPA (P35244 whole entry, chain 3 of 3): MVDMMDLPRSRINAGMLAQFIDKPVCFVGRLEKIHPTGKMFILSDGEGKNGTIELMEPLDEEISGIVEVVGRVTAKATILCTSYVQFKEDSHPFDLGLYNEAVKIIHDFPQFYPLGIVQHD

B1: Cy3-dT60-Cy5 (ssDNA)
DNA: TTTTTTTTTTTTTTTTTTTTTTTTTTTTTTTTTTTTTTTTTTTTTTTTTTTTTTTTTTTT
For the molecule B1, the binding result in the series with RAD51;SWSAP1-SWS1 is recorded as “binds”; with RPA, “binds”; with SWSAP1-SWS1, “no binding”; with RAD51 it was “binds”.
